Measured values as given in patent US20110135639A1 (Human Genome Sciences, published 2011).

Experiments:
[1] = molecular target: T1, membrane-bound form of Neutrokine-alpha (human, UniProt Q9Y275 1-285); assay: binding to THP-1 cells
T1 construct: also called Neutrokine-alpha on the surface of THP-1 cells; cell surface Neutrokine-alpha

[2] = molecular target: T2, peptide comprising amino acid residues Val-227 to Asn-242 of SEQ ID NO:2 (human); assay: epitope mapping with peptide
T2 peptide: VTLFRCIQNMPETLPN

[3] = molecular target: T3, soluble form of Neutrokine-alpha (amino acids 134 to 285 of SEQ ID NO:2) (human, UniProt Q9Y275 134-285); assay: capture of Neutrokine-alpha from solution
T3 construct: also called rNeutrokine-alpha; BLyS

Measured: binding result

T1 sequence (Q9Y275 whole entry): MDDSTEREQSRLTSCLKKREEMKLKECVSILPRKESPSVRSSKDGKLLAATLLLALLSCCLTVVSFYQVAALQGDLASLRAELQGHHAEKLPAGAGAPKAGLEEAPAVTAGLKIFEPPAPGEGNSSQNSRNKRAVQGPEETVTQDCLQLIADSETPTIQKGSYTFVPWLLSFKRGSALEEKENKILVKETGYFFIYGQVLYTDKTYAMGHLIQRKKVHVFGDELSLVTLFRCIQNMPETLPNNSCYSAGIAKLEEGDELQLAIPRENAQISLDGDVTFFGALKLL
T3 sequence (Q9Y275 134-285): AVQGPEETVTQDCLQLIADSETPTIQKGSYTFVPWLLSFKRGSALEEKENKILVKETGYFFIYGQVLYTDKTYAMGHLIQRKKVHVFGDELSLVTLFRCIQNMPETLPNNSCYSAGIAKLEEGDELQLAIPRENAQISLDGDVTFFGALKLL

B1: murine monoclonal antibody 15C10 (antibody, V domains shown)
VH: QVQLQQSGAELARPGASVKMSCRASGYTFTTYTMHWVKQRPGQGLEWIGYIIPRNTYTTFNQKFKNKATLTADKSSNTAYMQLSSLTSEDSAVYYCARHYGGGYWFFDVWGAGTTVTVSS
VL: ELVMTQTPASLAVSLGQRATISCRGSESVDSYGNSFMHWYQQKPGQPPKLLIYRASNLESGIPARFSGSGSRTDFTLTIYPVEADDVATYYCQQSNDDPMYTFGGGTKLEIKR
notes: A chimeric form with human IgG1 and kappa constant regions also exists (PTA-3794); also called hybridoma ATCC PTA-1158
binds: [1] | [2] | [3]
